In article PMC3179936:

Target: recombinant leucyl aminopeptidase of T. cruzi (rLAPTc), N-terminal His-tag (Trypanosoma cruzi)
Assay: AUC + SEC; sedimentation velocity of rLAPTc at 170, 56 and 10 μM, 25 mM Tris pH 8.0, 150 mM NaCl, 10°C, 42,000 rpm; s-values combined with Stokes radii from calibrated SEC (SEC-AUC method)

recombinant leucyl aminopeptidase of T. cruzi (rLAPTc), N-terminal His-tag (enzyme)
stoichiometry N (species eluting at 9 ml): 10.1 subunits | stoichiometry N (species eluting at 10 ml): 5.6 subunits
